From patent US7244563B2, “Genes for plant fatty acid modifying enzymes associated with conjugated double bond formation” (E. I. du Pont de Nemours and Company, priority 2002, dated 2007)

Key:
[1] = tested on: Saccharomyces cerevisiae INVSc1 cells; assay: Expression in Saccharomyces cerevisiae, accumulation of fatty acids with conjugated double bonds; format: cell-based; settings: 4 days at 16°
Experimental: The Impatiens balsamina clone ImpH8Fad2 was partially digested with the restriction enzymes EcoRI and XhoI. A resulting 1.5 kb DNA fragment containing the entire cDNA insert was purified by agarose gel electrophoresis. The cDNA insert was obtained from agarose gel by digestion with GELase™ (Epicentre Technologies) according to the manufacturer's instructions, ethanol precipitated, dried and resuspended in 20 μL of water. The purified cDNA was ligated into the EcoRI and XhoI sites of the Saccharomyces cerevisiae expression vector pYES2 (Invitrogen) using T4 DNA ligase (New England Biolabs). The resulting plasmid pYes2/ImpH8Fad2 was introduced into Saccharomyces cerevisiae INVSc1 (=Invitrogen)cells by lithium acetate-mediated transformation [Sherman F, Fink G R, Hicks J B, Methods in Yeast Genetics: A Laboratory Course Manual, Cold Spring Harbor Lab. Press, Plainview, N.Y. (1987)]. Transformed cells were selected by their ability to grow in the absence of uracil. Individual colonies of transformed cells were then grown for 2 days at 30° in growth media lacking uracil [0.17% (w/v) yeast nitrogen base without amino acids (Difco), 0.5% (w/v) ammonium sulfate, and 0.18% SC-URA (Bio101)] supplemented with glycerol and glucose to a final concentration of 5% (v/v) and 0.5% (w/v), respectively. Cells were then washed twice in the growth media described above that was supplemented instead with galactose to a final concentration of 2% (w/v). The washed cells were then diluted to O.D.600≈0.2 in the galactose-containing growth media that also contained Tergitol NP-40 (Sigma) at a concentration of 0.2% (w/v). Aliquots of these cells were grown without exogenous fatty acids or with the addition of either linoleic acid (18:2Δ^9cis,12cis) or α-linolenic acid (18:3Δ^9cis,12cis,15cis) at a final concentration of 2 mM. Following 4 days of growth at 16°, the S. cerevisiae cells were harvested and examined for the accumulation of fatty acids containing conjugated double bonds as described in Example 4. In cells grown in media containing linoleic acid, α-eleostearic acid was detected in amounts of up to 0.6% (w/w) of the total fatty acids.

[2] = tested on: soybean seeds; assay: Fatty acid composition of seeds of regenerated transgenic soybean plants; format: in vivo; settings: for Eleostearic / Other / 16:0 / 18:0 / 18:1 / 18:2 / 18:3 / α-Parinaric: single soybean seed; for Eleostearic: includes cis-trans isomers of α-eleostearic acid (<1.5 wt %); for Other: primarily 20:0, 20:1, 22:0, and 22:1; for 16:0 / 18:0 / 18:1 / 18:2 / 18:3 / α-Parinaric: % of total oil weight
From the text: To examine the ability of the Momordica fatty acid modifying enzyme associated with conjugated double bond synthesis to function in seeds of crop plants, transgenic soybean embryos expressing this enzyme were regenerated into plants. The fatty acid compositions of segregating seeds from these plants were examined by GC and GC-MS as described in Example 4

[3] = media containing linoleic acid 2 mM
[4] = media containing α-linolenic acid 2 mM

B1: ImpFad2: Impatiens balsamina fatty acid modifying enzyme associated with conjugated double bond formation, SEQ ID NO:2, cDNA SEQ ID NO:1 (protein, listed as Impatiens balsamina)
chain: MGEVGPTNRTKTKLDKQQESENRVPHEPPPFTLSDLKKAIPPHCFERSLVKSFYHVIHDIIILSFFYYVAANYIPMLPQNLRYVAWPIYWAIQGCVQLGILVLGHECGHHAFSDYQWVDDMVGFVLHSSQLIPYFSWKHSHRRHHSNTASIERDEVYPPAYKNDLPWFAKYLRNPVGRFLMIFGALLFGWPSYLLFNANGRLYDRFASHYDPQSPIFNNRERLQVIASDVGLVFAYFVLYKIALAKGFVWLICVYGVPYVILNGLIVLITFLQHTHPNLPRYDLSEWDWLRGALSTVDRDYGMLNKVFHNVTDTHLVHHLFTTMPHYRAKEATEVIKPILGDYYKFDDTPFLKALWKDMGKCIYVESDVPGKNKGVYWYNNDI
α-eleostearic acid of the total fatty acids [1, 3]: up to 0.6 % (w/w)
α-parinaric acid detection [1, 3]: no α-parinaric acid was detected
α-eleostearic acid detection [1, 4]: no α-eleostearic acid was detected
α-parinaric acid of the total fatty acids [1, 4]: up to 0.9 % (w/w)

B2: MomFad2: Momordica charantia fatty acid modifying enzyme associated with conjugated double bond formation, SEQ ID NO:4, cDNA SEQ ID NO:3 (protein, listed as Momordica charantia)
chain: MGGRGAIGVLRNGGGPKKKMGPGQGLGPGERITHARPPFSISQIKKAIPPHCFQRSLRRSFSYLLSDIALVSAFYYVADTYFHRLPHPLLHYLAWPVYWFCQGAVLTGMWGIAHDCGHHAFSDYQLVDDVVGFLIHSLVFVPYFSFKISHRRHHSNTSSVDRDEVFVPKPKAKMPWYFKYLTNPPARVFIIFITLTLGWPMYLTFNISGRYYGRFTSHFDPNSPIFSPKERVLVHISNAGLVATGYLLYRIAMAKGVGWLIRLYGVPLIVLNACVVLITALQHTHPSFPYYDSTEWDWLRGNLVTVDRDYGPIMNRVFHHITDTHVVHHLFPSMPHYNGKEATVAAKRILGEYYQFDGTPIWKAAWREFRECVYVEPDEDDGATSGSSSKGVFWYHNKL
Eleostearic ([2]; Line 1): 13.9 Weight %
Other ([2]; Line 1): <2.0 Weight %
Eleostearic ([2]; Line 2): 13.4 Weight %
Other ([2]; Line 2): <2.2 Weight %
Eleostearic ([2]; Line 3): 11.6 Weight %
Other ([2]; Line 3): <1.5 Weight %
16:0 ([2]; transgenic Line 1): 8.8 Weight %
18:0 ([2]; transgenic Line 1): 3.6 Weight %
18:1 ([2]; transgenic Line 1): 44.5 Weight %
18:2 ([2]; transgenic Line 1): 25.7 Weight %
18:3 ([2]; transgenic Line 1): 1.0 Weight %
α-Parinaric ([2]; transgenic Line 1): 0.5 Weight %
16:0 ([2]; transgenic Line 2): 8.4 Weight %
18:0 ([2]; transgenic Line 2): 3.5 Weight %
18:1 ([2]; transgenic Line 2): 48.9 Weight %
18:2 ([2]; transgenic Line 2): 22.3 Weight %
18:3 ([2]; transgenic Line 2): 0.7 Weight %
α-Parinaric ([2]; transgenic Line 2): 0.4 Weight %
16:0 ([2]; transgenic Line 3): 9.7 Weight %
18:0 ([2]; transgenic Line 3): 3.8 Weight %
18:1 ([2]; transgenic Line 3): 47.2 Weight %
18:2 ([2]; transgenic Line 3): 24.7 Weight %
18:3 ([2]; transgenic Line 3): 1.0 Weight %
α-Parinaric ([2]; transgenic Line 3): 0.5 Weight %
α-eleostearic acid of the total fatty acids ([2]; transgenic soybean seeds): more than 13%
α-parinaric acid of the total fatty acids ([2]; transgenic soybean seeds): approximately 0.5%
oleic acid (18:1) content of the total fatty acids ([2]; transgenic soybean seeds, about 18 wt % in wild-type): ~50 wt %
linolenic acid (18:3) content of the total fatty acids ([2]; transgenic soybean seeds, nearly 9 wt % in wild-type): about 1 wt %
